Results reported in patent US20170157198A1.

Assays:
[1] = target: T1, TFPI (human TFPI-1α), as coated or added in the ELISA and model assays (human), P10646; assay: competition; settings: modification not given
[2] = target: T1, TFPI (human TFPI-1α), as coated or …; assay: ELISA; settings: modification not given

B1: JBT0681 (peptide)
chain: FQSKGAVFVFGYFARLRAKL
[1]
  IC50: 68 nM

B2: JBT0783 (peptide)
chain: LKARLREFYGFVFVNKKSQF
[2]
  IC50: > 1670 nM

B3: JBT0720 (peptide)
chain: FQSKGNVFVTGYFARLRAKL
[2]
  IC50: 27 nM
